Measurements as given in patent US20130337478A1.
Changes are numbered by the printed parent chain.

B1: anti IgG-CH1 VHH #88 (VHH)
VHH: QVQLQESGGGSVQAGGSLRLSCAVSGNTLSRYAMGWFRQAPGNEREFVAAIRWNNGNTYYADSVEGRFTISRYSAKNLVYLQMNSLQAEDTAIYYCAARFLPYASSNAYHEALYNYDYWGQGTQVTVSS
B2: anti IgG-CH1 VHH #87 (VHH)
VHH: QVQLQESGGGLVQAGASLRLSCEVSGNTLSQYAMGWFRQVPGHKREFVAAIRWTNGNTYYADSVEGRFTISRDSAKKTVYLQMNSLQPDDTAIYYCAARFLPYASSNAYHESLYNYDYWGQGTQVTVSS
B3: anti IgG-CH1 VHH #01 (VHH)
VHH: QVQLQESGGGLVQAGGSLRLSCAVSGNTLSRYAMGWFRQTPGNEREFVAAIRWNNGATYYADSVEGRFTISRDSGKNTVYLQMNNLQPEDTAVYYCAGRFLGYASSNAYHEALYNYDYWGQGTQVTVSS
B4: anti IgG-CH1 VHH #86 (VHH)
VHH: B1 VHH with E6D, E65K, Y73D, L78T, A88P, I93V, Y95F
B5: anti IgG-CH1 VHH #85 (VHH)
VHH: B3 VHH with T40A, N85S
B6: anti IgG-CH1 VHH #19 (VHH)
VHH: B3 VHH with E65K
B7: anti IgG-CH1 VHH #84 (VHH)
VHH: B1 VHH with E6D, S11L, E65K, Y73D, L78T, A88P, I93V
B8: anti IgG-CH1 VHH #64 (VHH)
VHH: B3 VHH with N43K, E65K, Q87K
B9: anti IgG-CH1 VHH #10 (VHH)
VHH: B3 VHH with N43K
B10: anti IgG-CH1 VHH #73 (VHH)
VHH: B3 VHH with E65K, K76R, Q87K
B11: anti IgG-CH1 VHH #83 (VHH)
VHH: B1 VHH with E6D, S11L, Y73D, L78T, A88P, I93V
B12: anti IgG-CH1 VHH #37 (VHH)
VHH: B3 VHH with N43K, E65K
B13: anti IgG-CH1 VHH #55 (VHH)
VHH: B3 VHH with E65K, Q87K
B14: anti IgG-CH1 VHH #46 (VHH)
VHH: B3 VHH with N43K, Q87K
B15: anti IgG-CH1 VHH #89 (VHH)
VHH: B3 VHH with T40A, A57N, E65K, G75A, N85S, G98S, G102P
B16: anti IgG-CH1 VHH #28 (VHH)
VHH: B3 VHH with Q87K
B17: anti IgG-CH1 VHH #82 (VHH)
VHH: B1 VHH with S11L, E65K, Y73D, L78T, Y80F, A88P, I93V, Y95F

Experiments:
polyclonal human IgG [1] = test: affinity chromatography; VHH coupled to NHS-Sepharose 4B FF, polyclonal human IgG 0.5 mg/ml in PBS pH 7.4, 150 cm/hr
polyclonal human IgG [2] = test: affinity chromatography; VHH on Sepharose resin at about 15 mg/ml ligand density

| Binder | DBC (dynamic binding capacity) (polyclonal human IgG [1]) | DBC (dynamic binding capacity) (mg human IgG/ml resin) (polyclonal human IgG [2]) |
| --- | --- | --- |
| B1 | 7.31 mg/mL | – |
| B2 | 5.64 mg/mL | – |
| B3 | 8.74 mg/mL | 28 |
| B4 | 4.98 mg/mL | – |
| B5 | 11.9 mg/mL | – |
| B6 | 9.4 mg/mL | – |
| B7 | 8.27 mg/mL | – |
| B8 | 10.2 mg/mL | – |
| B9 | 12 mg/mL | – |
| B10 | 11.7 mg/mL | – |
| B11 | 8.46 mg/mL | – |
| B12 | 9.8 mg/mL | – |
| B13 | 11.3 mg/mL | – |
| B14 | 11.2 mg/mL | – |
| B15 | 5.61 mg/mL | – |
| B16 | 12.5 mg/mL | – |
| B17 | 6.69 mg/mL | – |
